In patent publication US20210238262A1 (HENRY M JACKSON FOUNDATION FOR THE ADVANCEMENT OF MILITARY …, published 2021):
Substitutions are numbered along the chain they refer to.

B1: rhMZ134-B (antibody, V domains shown)
VH: EVQLVESGGGLAKPGGSLRLSCAASGFTFSDYYMDWVRQAPGKGLEWVSRISNGGGSTWYADSVKGRFTISRENAKNTLYLQMNSLRAEDTAVYYCARGPEYCSSTYCSSAYCTGSGCYVDYGLDSWGQGVVVTVSS
VL: SYELTQPPSVSVSPGQMARITCGGDNIGSKNVQWYQQKPAQAPVLVIYADSERPSGIPERFSGSNSGNTATLTISGVEAGDEADYYCQVWDSSSDHVLFGGGTRLTVLG
B2: rhMZ107-B (antibody, V domains shown)
VH: QVQLQESGPGLVKPSETLSLTCAVSGYSISSGYYWGWIRQPPGKGLEYIGYISGSSGSTYYNPSLKSRVTISKDTSKNQFSLKLSSVTAADTAVYYCARRDRVGSYPYYYGLDSWGQGVLVTVSS
VL: QSVLTQPPSLSASPGASARLPCTLSSDLSVGSKNMYWYQQKPGSAPRLFLYYYSDSDKQLGPGVPNRVSGSKETSSNTAFLLISGLQPEDEADYYCQVYDGSANDVFGSGTKLTVLG
B3: rhMZ103-A (antibody, V domains shown)
VH: QVQLQESGPGLVKPSETLSLTCAVSGGSISGGYDWSWIRQPPGKGLEWIGYIYGSSGSTNYNPSLKNRVTISKDTSKNQFSLKLSSVTAADTAVYYCARPAYYEDDYGYYYTTPIFDYWGQGVLVTVSS
VL: QSVLTQPPSASGAPGQSVTISCSGSSSNIGSNYVYWYQQLPGTAPKLLIYYSNQRPSGVPDRFSGSKSGTSASLAITGLRSEDEADYYCAAWDNSLSSVLFGGGTRLTVLG
B4: MZ4 (antibody, V domains shown)
VH: QVHLQESGPGLVRPSETLSLTCTVSDGSISSYYWSWIRQPPGKGLEWIGSIYYTGSTNYNPSLKSRVTMSVDTSKNQFSLRLNSVTAADTAMYYCAGLDRYSWNEGGDHWGQGILVSVSS
VL: QPVLTQPPSASGTPGQRVSISCSGSRSNLGKNTVNWYQQLPGTAPKLLIYNHSRRPSGVPERFSGSKSGTSASLAISGLQSEDEADYFCAAWDDSLNGLYVFGTGTKVTVLR
notes: also called MHRP ZIKV-1004
B5: rhMZ119-D (antibody, V domains shown)
VH: EVQLVQSGAEVKRPGESLKISCKTSGYSFTSYWISWVRQMPGKGLEWMGAIDPSDSDTRYSPSFQGQVTISADKSISTAYLQWSSLKASDSATYYCAKEGIAARSLDVWGRGVLVTVSS
VL: SYELTQPPSVSVSPGQTARITCSGDALPKKYAYWFQQKPGQSPVLIIYEDSKRPSGIPERFSGSSSGTVATLTISGAQVEDEADYYCYSTDSSGYHGLFGGGTRLTVLG
B6: rhMZ100-C (antibody, V domains shown)
VH: EVQLVESGGGLVQPGGSLRLSCAASGFTFSSDGMSWVRQAPGKGLEWVSYISSGGATTYYADSVKGRFTISRDNSKNTLSLQMNSLRGEDTAVYYCAKDITAPGRNGLDSWGQGVVVTVSS
VL: QSVLTQPPSLSASPGASARLPCTLSSDLNVGTKNMYWYQQKPGSAPRLFLYYYSDSDKQLGPGVPNRVSGSKETSSNTAFLLISGLQPEDEADYYCQVYDNSARVFGGGTRLTVLG
B7: rhMZ133-C (antibody, V domains shown)
VH: EVQLVESGGGLVQPGGSLRLSCAASGFTFSDYYMSWVRQAPGKGPEWVGFIRNKANGGTAEYAASVKGRFTVSRDDSKSIASLQMNSLKTEDTAVYYCAKHYCTGSGCYGAGLDSWGQGVVVTVSS
VL: QSVLTQPPSVSKSLGQSVTISCTGTSSDIGGSNDVSWYQQHPGTAPRLLIYNVSKRPSGVSDRFSGSKSGNTASLTISGLQAEDEADYYCCSYRSGSTLFGGGTRLTVLG
B8: rhMZ101-B (antibody, V domains shown)
VH: EVQLVESGGGLAKPGGSLRLSCAASGFSFSDYYMYWVRQAPGKGLEWVSGISYTGGSTYYADSVKGRFTISRENAKNTLYLQMDSLRAEDTAVYYCARVLYSGSYYYFDYWGQGVLVTVSS
VL: B2 VL with L82V, G101S, D105I
B9: rhMZ104-D (antibody, V domains shown)
VH: EVQLVESGGGLAKPGGSLRLSCAASGFTFSDYYMDWVRQAPGKGLEWVSRISNGGGSTWYADSVKGRFTISRENAKNTLYLQMNSLRAEDTAVYYCARERYCSGGVCYAGTKYFDYWGQGVLVTVSS
VL: B2 VL with S2P, G101S, D105W, S109G, K112R
B10: rhMZ121-A (antibody, V domains shown)
VH: QVQLQESGPGLVKPSETLSLTCAVSGYSISSGYYWGWIRQPPGKGLEYIGYISGSSGSTYYNPSLKSRVTISKDTSKNQFSLKLSSVTAADTAVYYCARGNYYSGSYYLFWGQGVLVTVSS
VL: B1 VL with M17T, I27L, N31Y, Q33H, A49Y, E52D, N65K, V97W, L98V
B11: rhMZ123-A (antibody, V domains shown)
VH: QLVQSGAEVKRPGESLRISCKTSGYSFTSYWISWVRQMPGKGLEWMGMIYPGDSDTRYSPSFQGQVTISADKSISTAYLQWSSLKASDTATYYCAKVDSSGWTNYFDYWGQGVLVTVSS
VL: QSALTQPPSVSKSLGQSVTISCTGTSSDIGGYNGVSWYQQHSGTAPRLLIYDVSKRPSGVSDRFSGSKSGNTASLTISGLQAEDEADYYCCSYRSGSTYIFGAGTRLTVLG
B12: rhMZ124-D (antibody, V domains shown)
VH: QVQLQESGPGLVKPSETLSLTCAVSGDSISSGYYWGWIRQSPGRGLESFGFISGSGGTTYYNPSLKTRVTISKDTSKNQFSLKLSSVTAADTAVYYCARLGHPRGIAAGGVDYWGQGVLVTVSS
VL: QSALTQPPSLSASPGASARLPCTLSSDFSVGNKNMYWYQQKPGSAPGLFLYFYSDSDNQLGPGVPNRVSGSKEASSNTAFLLISGLQPEDEADYYCQVYDRAANILFGGGTRLTVLG
B13: MZ20 (antibody, V domains shown)
VH: EVQVVESGGGLVKPGGSLRLSCAASGFTFSHFYMTWIRQAPGKGLESISYIGGTGSPTYYADSVVGRFTISRDNAKNSVYLEMNSLRAEDTAIYYCVRAGGARIENWGQGTLVIVSS
VL: DIVMTQSPSSLSASVGDRVTITCQASHDINIYLNWYQQRPGKAPKLLIYDASRLETGVPSRFSGTGSGTDFTFTISNLQPEDFATYFCQHYYTLPRTFGQGTKVDIKR
B14: MZ54 (antibody, V domains shown)
VH: EVQLVESGGGLVKPGGSLRLSCSASGFNFRDFYMGWVRQAPGKGLQWVSHIGDSGGAIYYTDSVEGRFSISRDNAKNSLYLQMNSLRVEDTAIYYCVCAGGGRTDYWGQGTLVTVSS
VL: DIVMTQSPSSLSASVGDRVTITCQATQDINIYLNWYQQKPGQAPKLLIYDASRLETGVPSRFSGRGSGTDFTFTISSLQPEDFGTYYCQHYYTVPRTFGQGTKVESRR
B15: MZ56 (antibody, V domains shown)
VH: EVQLVESGGDLVQPGGSLRLSCAASGFTFSNYAMHWVRQAPGKGLESVSAIGSNGDSIFYASSVKGRFTISRDNSKNTLYLQMGSLRADDMAVYFCARGWYYYDSRAYWYFDLWGRGTLVTVSS
VL: QPVLTQPASVSGSPGQSITISCTGTTSDVDDYNHVSWYQQYPGKAPRVMLYDVTKRPSGVPDRFSGSKSGNTASLTISGLQSEDEADYYCCSFADSHAIFGGGTKVTVLG
B16: MZ1 (antibody, V domains shown)
VH: QVQLQESGPGLVKSSETLSLSCTVSGASISNFYWSWVRQPPGKGLEWMGSIYYTGTITYNPSLKSRLTMSVDTSKNQFSLKLNSVTAADTAVYSCAGLDRFNWNDEGDCWGQGTLVTVFS
VL: B4 VL with P2S, S19T, K31R, T43V, N51S, H52N, S53N, E61D, G69D, R112G

target: Whole purified ZIKV (ZIKV/Brazil/2015) virions (Zika virus, ZIKV/Brazil/2015); assay: cell-based or functional assay

Binder	FlowNT50 neutralization, U937-DC-SIGN cells, IC50 [µg/mL]	FlowNT50 neutralization, IC50 [µg/mL]	flow-based neutralization assay using human monocytes (FlowNT), IC50 [µg/mL]
B1	0.022		
B2		1 to 3	
B3		1 to 3	
B4			0.0083
B5	0.031		
B6		1 to 3	

target: ZIKV PR (Puerto Rican strain, PRVABC59) virus (Zika virus strain PRVABC59); assay: cell-based or functional assay

Binder	micro-neutralization (MN50) in Vero cells, IC50 [µg/mL]
B1	0.0038

target: DENV-2 (S16803) virus (Dengue virus serotype 2 strain S16803); assay: cell-based or functional assay

Binder	flow-based neutralization assay using human monocytes (FlowNT), IC50 [µg/mL]
B4	0.0209

target: ZIKV H/PF/2013 reporter virus particle with E mutant (D67N, A69T) (Zika virus strain H/PF/2013); assay: cell-based or functional assay

Binder	neutralization in the reporter virus particle (RVP) assay, mutant against wild-type ZIKV H/PF/2013 [fold]
B1	10
B7	2
B3	5

target: T1, Recombinant DENV-2 sE (1-396) from strain 16681-PDK53 with C-terminal AviTag and poly-histidine tags (Dengue virus serotype 2 strain …, UniProt P29991 281-676, biotinylated on the AviTag for BLI); assay: BLI and ELISA on DENV-2 E glycoprotein
T1 construct: Produced in Expi293F cells; biotinylated for BLI; also called DENV-2 E

Binder	binding result
B1	no binding
B2	no binding
B7	no binding
B3	no binding
B5	no binding
B6	no binding
B8	no binding
B9	no binding
B10	no binding
B11	no binding
B12	no binding

target: T1, Recombinant DENV-2 sE (1-396) from …; assay: ELISA on DENV-2 E

Binder	binding result
B4	binds
B13	binds
B14	binds
B15	binds
B16	binds
